Results: publication PMC5433351

Assays:
Type in all cases: biochemical, Metallosphaera sedula
[1] = substrate: CC(C)(COP(=O)(O)OP(=O)(O)OC[C@H]1O[C@@H](n2cnc3c(N)ncnc32)[C@H](O)[C@@H]1OP(=O)(O)O)[C@@H](O)C(=O)NCCC(=O)NCCSC(=O)CCC(=O)O; experiment: NADPH consumption, spectrophotometric; settings: NADPH 0.5 mM, MgCl2 5 mM, DTT 4 mM, pH 6.5, 65°C
[2] = substrate: NC(=O)C1=CN([C@@H]2O[C@H](COP(=O)(O)OP(=O)(O)OC[C@H]3O[C@@H](n4cnc5c(N)ncnc54)[C@H](OP(=O)(O)O)[C@@H]3O)[C@@H](O)[C@H]2O)C=CC1; experiment: NADPH consumption, spectrophotometric; settings: succinyl-CoA as substrate, pH 6.5, 65°C, varied: cofactor
purified protein = substrate: O=CCCC(=O)O; experiment: purified protein; settings: NADPH 0.5 mM, MgCl2 5 mM, DTT 5 mM, pH 6.5, 65°C

Protein | Km [1] [µM] | Vmax [1] [µmol/min/mg] | kcat/Km [1] [M⁻¹ s⁻¹] | Km [2] [µM] | Vmax [2] [µmol/min/mg] | kcat/Km [2] [M⁻¹ s⁻¹] | Km (purified protein) [µM] | Vmax (purified protein) [µmol/min/mg] | kcat/Km (purified protein) [M⁻¹ s⁻¹]
MCR, malonyl-CoA/succinyl-CoA reductase (Metallosphaera sedula DSM 5348) (protein) MRRTLKAAILGATGLVGIEYVRMLADHPYIKPTYLAGKGSVGKPYGEIVRWQTVGNVPKEVANQEVKPTDPKLMDDVDIIFSPLPQGAAGPVEEQFAKLGFNVISNSPDHRFDMDVPMIIPEVNPHTVTLIDEQRKRRDWKGFIVTTPLCTAQGAAIPLTPIYQNFKMSGVMITTMQSLSGAGYPGIASLDIVDNALPLGDGYDAKTVKEITRILSEVKRNVQEPGVNEITLDATTHRIATIHGHYEVAYVTFKEDTDVRKVMESMESFKGEPQDLKLPTAPEKPIIVTTQDARPQVFFDRWAGNPPGMSVVVGRLKQVNPRTIRFVSLIHNTVRGAAGGGVLTAELLVEKGYIDKR | 191 | 15.9 | 54500 | 79.2 | 13.1 | 109000 | – | – | –
SSR, succinic semialdehyde reductase (Metallosphaera sedula DSM 5348) (protein) MKAAVLHTYKEPLSIEDVNISQPKAGEVKIKVKATGLCHSDVNVFEGKTPVPPPVVAGHEISGIVEEVGPGVTRVKPGDRVISAFIHPCGKCGNCVAGKENLCETFSQVRLKGVMPDGTSRLSKDGKEIRTFLGGGFAEYAIVGENALTRVPEDMDLEKVAVLGCAGLTGYGAISSSKIEPGDTVAVIGVGGVGLSTIQLLRASGAGRIIAVGTKKWKLDRAMELGATDVVNSKEIDPVKAIKEITGGGPQVVIEAGGNEDTIHMALDSVRIGGKVVLVGLPPATAMIPIRVASIVRGGIEVVGNYGGRPRVDMPKLLELVRQGRYDPSRLVTGRFRLEEINEAVKMLEEGEAIRSLIIP | – | – | – | – | – | – | 27 | 683 | 1.6e+07
